Data as given in patent US20240116985A1 (published 2024).
Blank lines part the entries; values can stand above or below the binder they belong to. Starred links: 1 amine or outer side, 2 acyl side, 3 side chain; linkers in the order of their positions; H or OH if unused. Positions of bridges follow the written chain, without caps; N, C: chain ends. Non-standard residues stand in square brackets, D forms with d. Primed or numbered codes have the meaning given here. RdN(3) = (R)-4-(((allyloxy)carbonyl)(methyl)amino)-2-amino-2-methylbutanoic acid, stapling residue, C=CCOC(=O)N(C)CC[C@@](C)(N[*:1])C(=O)[*:2]; RdN″ = (R)-4-(((allyloxy)carbonyl)(methyl)amino)-2-amino-2-methylbutanoic acid (stapling residue), C=CCOC(=O)N(C)CC[C@@](C)(N[*:1])C(=O)[*:2]; RgN = (R)-3-(((allyloxy)carbonyl)(methyl)amino)-2-amino-2-methylpropanoic acid (stapling residue), C=CCOC(=O)N(C)C[C@@](C)(N[*:1])C(=O)[*:2]; PyrS(3) = (S)-1-((allyloxy)carbonyl)-3-aminopyrrolidine-3-carboxylic acid, stapling residue, C=CCOC(=O)N1CC[C@@](N[*:1])(C(=O)[*:2])C1; PyrS″ = (S)-1-((allyloxy)carbonyl)-3-aminopyrrolidine-3-carboxylic acid (stapling residue), C=CCOC(=O)N1CC[C@@](N[*:1])(C(=O)[*:2])C1; RdN = (R)-4-(((allyloxy)carbonyl)(methyl)amino)-2-amino-2-methylbutanoic acid, C=CCOC(=O)N(C)CC[C@@](C)(N[*:1])C(=O)[*:2]; PyrS = (S)-1-((allyloxy)carbonyl)-3-aminopyrrolidine-3-carboxylic acid, C=CCOC(=O)N1CC[C@@](N[*:1])(C(=O)[*:2])C1; S7 = C[C@@](CCCCCC=[*:3])(N[*:1])C(=O)[*:2]; Phe(3-F) = N[C@@H](Cc1cccc(F)c1)C(=O)O; 2Pal = N[C@@H](Cc1ccccn1)C(=O)O; 3Pal = N[C@@H](Cc1cccnc1)C(=O)O; R8 = C=CCCCCCC[C@@](C)(N)C(=O)O; Cha = N[C@@H](CC1CCCCC1)C(=O)O; S8 = C=CCCCCCC[C@](C)(N)C(=O)O; hLeu = CC(C)CC[C@H](N)C(=O)O; S5 = C=CCCC[C@](C)(N)C(=O)O

Experiments:
[1] = target: T1, full-length beta-Catenin (Uniprot ID P35222) (Homo sapiens (Human), UniProt P35222 2-781); experiment: AlphaScreen competition; full-length beta-catenin, biotin-TCF4(10-53) probe
T1 construct: Used full-length in both the FP and the AlphaScreen assay; also called B-Catenin; bCat
T1 sequence: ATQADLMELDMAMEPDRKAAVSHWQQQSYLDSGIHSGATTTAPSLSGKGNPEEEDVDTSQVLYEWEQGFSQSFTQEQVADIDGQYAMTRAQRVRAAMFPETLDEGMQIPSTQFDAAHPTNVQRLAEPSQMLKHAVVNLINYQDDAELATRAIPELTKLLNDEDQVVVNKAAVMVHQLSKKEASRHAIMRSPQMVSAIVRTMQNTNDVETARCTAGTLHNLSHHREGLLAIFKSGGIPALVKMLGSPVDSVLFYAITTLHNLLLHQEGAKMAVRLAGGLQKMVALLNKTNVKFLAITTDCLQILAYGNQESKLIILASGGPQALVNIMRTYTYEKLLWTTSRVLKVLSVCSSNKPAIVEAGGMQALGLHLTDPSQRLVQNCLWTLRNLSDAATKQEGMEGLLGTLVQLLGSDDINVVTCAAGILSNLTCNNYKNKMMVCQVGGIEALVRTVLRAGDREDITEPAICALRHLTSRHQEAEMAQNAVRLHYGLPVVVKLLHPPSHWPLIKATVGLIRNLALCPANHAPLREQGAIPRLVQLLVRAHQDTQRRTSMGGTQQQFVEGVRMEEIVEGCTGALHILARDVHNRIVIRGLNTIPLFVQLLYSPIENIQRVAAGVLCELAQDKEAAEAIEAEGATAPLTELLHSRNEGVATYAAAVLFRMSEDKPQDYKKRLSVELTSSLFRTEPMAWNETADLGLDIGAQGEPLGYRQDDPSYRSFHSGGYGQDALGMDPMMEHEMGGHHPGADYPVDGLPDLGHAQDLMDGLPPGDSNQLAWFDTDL
Description: (§1) Equal volume of the titrated peptide was added to the plate and incubated for 15 minutes at 20° C. Then 4 uL of donor and 4 uL acceptor beads at 10 ug/mL were added to the plate, for a 16 uL reaction pool and protected from light for 60 minutes at 20° C. prior to read. Reads were performed on a CLARIOstar plate reader (BMG Labtech) in duplicate, and data were fitted to a 1:1 binding model with hill slope using an in-house script. All provided concentrations are final concentrations.

[2] = target: T2, full-length beta-Catenin (Uniprot ID P35222) (Homo sapiens (Human), UniProt P35222 2-781); experiment: AlphaScreen competition vs biotin-TCF4(10-53) on full-length beta-catenin
T2 construct: The assay text says 'full-length'; also called B-Catenin; bCat
T2 sequence: T1 sequence
Description: as §1

EC50 [1]: ≥ 10 µM
B1: I-51 (peptide)
peptide: Ac-FD[R8]ADDAAF[PyrS(3)]AFWQ-NH2
modifications: staple 3-10
notes: Stapled peptide; also called Ac-Phe-Asp-R8-Ala-Asp-Asp-Ala-Ala-Phe-PyrS-Ala-Phe-Trp-Gln-NH2

EC50 [1]: ≥ 10 µM
B2: I-71 (peptide)
peptide: Ac-ADI[RdN″]D[hLeu]AAFQ[S7]FWH-NH2
modifications: staple 4-11
notes: Stapled peptide; also called Ac-Ala-Asp-Ile-RdN-Asp-hLeu-Ala-Ala-Phe-Gln-S7-Phe-Trp-His-NH2

EC50 [1]: ≥ 10 µM
B3: I-72 (peptide)
peptide: Ac-ADI[RdN]D[Cha]AAFQ[S7]FWH-NH2
modifications: staple 4-11; not fully specified; printed as Ac-Ala-Asp-Ile-RdN-Asp-Cha-Ala-Ala-Phe-Gln-S7-Phe-Trp-His-NH2
notes: Stapled peptide; also called Ac-Ala-Asp-Ile-RdN-Asp-Cha-Ala-Ala-Phe-Gln-S7-Phe-Trp-His-NH2

EC50 [2]: ≥ 10 µM
Binder: Ac-FDA[RgN]DDAAFV[S8]FWQ-NH2 (staple 4-11, Stapled peptide composition) [I-44]

EC50 [2]: 9.34 µM
B4: I-42 (peptide)
peptide: FDAXDDAAFVXFWQ
modifications: not fully specified; Ac-Phe-Asp-Ala-RdN-Asp-Asp-Ala-Ala-Phe-Val-S4-Phe-Trp-Gln-NH2 as printed: N-terminal acetyl, C-terminal amide, RdN at 4 stapled to S4 at 11
notes: Stapled peptide composition

EC50 [1]: ≥ 10 µM
B5: I-77 (peptide)
peptide: Ac-FDA[R8]DDAA[Phe(3-F)]V[PyrS]FWQ-NH2
modifications: staple 4-11
notes: Stapled peptide; also called Ac-Phe-Asp-Ala-R8-Asp-Asp-Ala-Ala-3FF-Val-PyrS-Phe-Trp-Gln-NH2

EC50 [1]: ≥ 10 µM
B6: I-50 (peptide)
peptide: Ac-FD[RdN(3)]ADDAAF[S7]AFWQ-NH2
modifications: staple 3-10; also: later-eluting HPLC isomer, E/Z not assigned
notes: Stapled peptide; also called Ac-Phe-Asp-RdN-Ala-Asp-Asp-Ala-Ala-Phe-S7-Ala-Phe-Trp-Gln-NH2

EC50 [2]: ≥ 10 µM
B7: I-41 (peptide)
peptide: FDAXDDAAFVXFWQ
modifications: not fully specified; Ac-Phe-Asp-Ala-RdN-Asp-Asp-Ala-Ala-Phe-Val-S4-Phe-Trp-Gln-NH2 as printed: N-terminal acetyl, C-terminal amide, RdN at 4 stapled to S4 at 11
notes: Stapled peptide composition

EC50 [1]: ≥ 10 µM
B8: I-83 (peptide)
peptide: Ac-FDA[R8]DDAAFV[PyrS][3Pal]WQ-NH2
modifications: staple 4-11
notes: Stapled peptide; also called Ac-Phe-Asp-Ala-R8-Asp-Asp-Ala-Ala-Phe-Val-PyrS-3PyrA-Trp-Gln-NH2

EC50 [2]: ≥ 10 µM
Binder: Ac-FDA[RgN]DDAAFV[S7]FWQ-NH2 (staple 4-11, Stapled peptide composition) [I-45]

EC50 [1]: ≥ 10 µM
B9: I-80 (peptide)
peptide: Ac-FDA[R8]DDAAFV[PyrS][2Pal]WQ-NH2
modifications: staple 4-11
notes: Stapled peptide; also called Ac-Phe-Asp-Ala-R8-Asp-Asp-Ala-Ala-Phe-Val-PyrS-2PyrA-Trp-Gln-NH2

EC50 [1]: ≥ 10 µM
B10: I-74 (peptide)
peptide: Ac-FDA[R8]DDAA[Cha]V[PyrS″]FWQ-NH2
modifications: staple 4-11; not fully specified; printed as Ac-Phe-Asp-Ala-R8-Asp-Asp-Ala-Ala-Cha-Val-PyrS-Phe-Trp-Gln-NH2
notes: Stapled peptide; also called Ac-Phe-Asp-Ala-R8-Asp-Asp-Ala-Ala-Cha-Val-PyrS-Phe-Trp-Gln-NH2

EC50 [1]: 8.9 µM
B11: I-61 (peptide)
peptide: Ac-FDA[R8]DDAAFV[PyrS][Cha]WQ-NH2
modifications: staple 4-11
notes: Stapled peptide; also called Ac-Phe-Asp-Ala-R8-Asp-Asp-Ala-Ala-Phe-Val-PyrS-Cha-Trp-Gln-NH2

EC50 [1]: ≥ 10 µM
B12: I-49 (peptide)
peptide: Ac-FD[RdN(3)]ADDAAF[S7]AFWQ-NH2
modifications: staple 3-10; also: earlier-eluting HPLC isomer, E/Z not assigned
notes: as for B6

EC50 [1]: ≥ 10 µM
B13: I-47 (peptide)
peptide: Ac-FD[R8]ADDAAF[S5]AFWQ-NH2
modifications: staple 3-10; also: staple isomer composition: earlier-eluting HPLC peak
notes: Stapled peptide; also called Ac-Phe-Asp-R8-Ala-Asp-Asp-Ala-Ala-Phe-S5-Ala-Phe-Trp-Gln-NH2

EC50 [1]: ≥ 10 µM
B14: I-73 (peptide)
peptide: Ac-ADI[RdN(3)]D[Cha]AAFQ[S7]FWH-NH2
modifications: staple 4-11; not fully specified; printed as Ac-Ala-Asp-Ile-RdN-Asp-Cha-Ala-Ala-Phe-Gln-S7-Phe-Trp-His-NH2
notes: as for B3

EC50 [1]: ≥ 10 µM
B15: I-70 (peptide)
peptide: Ac-ADI[RdN″]D[hLeu]AAFQ[S7]FWH-NH2
modifications: staple 4-11
notes: as for B2

EC50 [1]: ≥ 10 µM
B16: I-60 (peptide)
peptide: Ac-FDA[R8]DDAAFV[PyrS][Cha]WQ-NH2
modifications: staple 4-11
notes: as for B11
